The values that follow are results of earlier work, collected in PMC11209288.

This series addresses inositol 1,4,5-triphosphate receptor (IP3R) (Homo sapiens) (UniProt Q14643).
Sequence of UniProt Q14643 (Q14643 whole entry): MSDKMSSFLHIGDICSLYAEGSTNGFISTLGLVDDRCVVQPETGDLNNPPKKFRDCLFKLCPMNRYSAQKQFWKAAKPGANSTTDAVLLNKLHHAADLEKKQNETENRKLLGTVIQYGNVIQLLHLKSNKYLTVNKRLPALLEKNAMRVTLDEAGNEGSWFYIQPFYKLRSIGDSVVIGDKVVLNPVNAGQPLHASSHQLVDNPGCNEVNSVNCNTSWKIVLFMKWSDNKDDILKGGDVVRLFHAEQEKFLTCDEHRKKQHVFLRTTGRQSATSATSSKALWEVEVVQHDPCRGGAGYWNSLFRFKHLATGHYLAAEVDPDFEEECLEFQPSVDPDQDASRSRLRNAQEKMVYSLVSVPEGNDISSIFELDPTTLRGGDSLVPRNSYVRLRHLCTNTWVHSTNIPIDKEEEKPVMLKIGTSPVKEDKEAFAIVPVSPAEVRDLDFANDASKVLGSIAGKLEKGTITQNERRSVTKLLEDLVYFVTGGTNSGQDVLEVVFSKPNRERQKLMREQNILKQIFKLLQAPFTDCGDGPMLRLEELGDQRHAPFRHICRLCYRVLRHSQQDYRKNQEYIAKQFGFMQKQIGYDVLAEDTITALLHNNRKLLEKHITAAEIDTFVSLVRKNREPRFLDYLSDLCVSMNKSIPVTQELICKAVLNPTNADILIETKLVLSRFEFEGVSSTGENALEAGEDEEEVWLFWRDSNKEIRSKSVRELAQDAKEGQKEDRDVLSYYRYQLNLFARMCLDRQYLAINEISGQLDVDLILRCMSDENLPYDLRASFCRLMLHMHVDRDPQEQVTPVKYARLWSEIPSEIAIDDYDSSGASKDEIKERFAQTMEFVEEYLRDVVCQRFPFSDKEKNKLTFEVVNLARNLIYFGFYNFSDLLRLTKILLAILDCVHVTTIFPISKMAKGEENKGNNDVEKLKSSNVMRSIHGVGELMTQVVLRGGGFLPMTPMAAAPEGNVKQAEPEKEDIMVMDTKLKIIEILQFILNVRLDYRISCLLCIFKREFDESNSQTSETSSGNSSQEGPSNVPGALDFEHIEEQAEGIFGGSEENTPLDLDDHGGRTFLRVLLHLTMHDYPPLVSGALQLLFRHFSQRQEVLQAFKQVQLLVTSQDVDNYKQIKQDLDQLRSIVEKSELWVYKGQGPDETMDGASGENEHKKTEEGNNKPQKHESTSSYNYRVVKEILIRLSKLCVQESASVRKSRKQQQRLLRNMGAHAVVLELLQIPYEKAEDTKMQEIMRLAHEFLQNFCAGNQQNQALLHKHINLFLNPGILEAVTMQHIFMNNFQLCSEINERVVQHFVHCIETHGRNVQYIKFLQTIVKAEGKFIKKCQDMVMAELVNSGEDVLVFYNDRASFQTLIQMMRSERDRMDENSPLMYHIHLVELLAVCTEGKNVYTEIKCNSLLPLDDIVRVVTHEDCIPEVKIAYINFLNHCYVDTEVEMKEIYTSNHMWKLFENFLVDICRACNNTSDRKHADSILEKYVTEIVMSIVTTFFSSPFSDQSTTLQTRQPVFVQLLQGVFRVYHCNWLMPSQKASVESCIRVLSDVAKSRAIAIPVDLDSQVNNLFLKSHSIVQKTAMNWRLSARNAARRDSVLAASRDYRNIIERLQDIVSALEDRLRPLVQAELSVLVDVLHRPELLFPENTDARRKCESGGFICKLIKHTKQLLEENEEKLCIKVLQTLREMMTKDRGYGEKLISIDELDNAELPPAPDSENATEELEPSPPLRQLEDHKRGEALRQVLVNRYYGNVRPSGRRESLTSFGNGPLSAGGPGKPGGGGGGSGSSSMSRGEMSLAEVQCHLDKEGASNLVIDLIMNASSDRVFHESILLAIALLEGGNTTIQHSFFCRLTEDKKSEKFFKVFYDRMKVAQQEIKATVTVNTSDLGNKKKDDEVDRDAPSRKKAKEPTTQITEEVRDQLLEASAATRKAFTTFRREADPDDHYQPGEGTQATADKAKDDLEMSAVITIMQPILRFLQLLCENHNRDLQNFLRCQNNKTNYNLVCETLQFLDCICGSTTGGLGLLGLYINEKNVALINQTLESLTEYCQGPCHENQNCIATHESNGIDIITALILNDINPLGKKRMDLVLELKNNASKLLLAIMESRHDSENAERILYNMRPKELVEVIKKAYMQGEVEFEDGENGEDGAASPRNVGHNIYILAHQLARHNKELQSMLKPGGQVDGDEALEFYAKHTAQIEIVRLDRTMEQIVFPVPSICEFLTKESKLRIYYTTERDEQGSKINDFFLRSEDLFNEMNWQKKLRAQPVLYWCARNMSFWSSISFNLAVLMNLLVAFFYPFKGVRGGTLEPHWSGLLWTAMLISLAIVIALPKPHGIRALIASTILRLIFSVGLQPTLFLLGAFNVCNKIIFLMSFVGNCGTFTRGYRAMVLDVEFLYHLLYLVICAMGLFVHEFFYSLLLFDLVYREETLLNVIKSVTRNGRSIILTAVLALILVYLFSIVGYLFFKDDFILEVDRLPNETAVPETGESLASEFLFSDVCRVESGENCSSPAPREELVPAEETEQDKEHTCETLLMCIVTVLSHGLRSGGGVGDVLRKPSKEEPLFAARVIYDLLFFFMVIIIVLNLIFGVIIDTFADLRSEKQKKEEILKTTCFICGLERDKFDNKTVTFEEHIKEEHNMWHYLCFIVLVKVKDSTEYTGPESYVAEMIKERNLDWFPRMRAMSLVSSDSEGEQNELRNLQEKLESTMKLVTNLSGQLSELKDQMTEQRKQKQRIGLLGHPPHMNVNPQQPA

As a reminder, the Kd is the constant that tells how readily two partners part at equilibrium. On to Bok (from UniProt Q9UMX3), for which the Kd was 0.065 µM.
